According to US7304127:
Values joined by “and” are separate entries in the source; they are usually repeats but may differ in a detail not shown here. Equal entries are not always repeated.

These molecules were tested against HIV-1LAI envelope gp120 labeled with radioactive iodine (HIV-1 LAI) (UniProt P03377) (assay: 125I-gp120, peptide array).
Work on CCR5 241-258 (peptide) yielded a counts minus background (counts per 20 min) of 214. Work on CCR5 221-238 (peptide) yielded a counts minus background (counts per 20 min) of 102. For STRL33 297-314 (peptide), the counts minus background (counts per 20 min) was 144 and 82.5. For STRL33 41-58 (peptide), the counts minus background (counts per 20 min) was 570 and 284. STRL33 105-122 (peptide) was tested, and the counts minus background (counts per 20 min) was 500 and 408. With STRL33 109-126 (peptide) the counts minus background (counts per 20 min) was 352 and 510. Work on CCR5 105-122 (peptide) yielded a counts minus background (counts per 20 min) of 80. With STRL33 113-130 (peptide) the counts minus background (counts per 20 min) was 744 and 908. STRL33 309-326 (peptide) was tested, and the counts minus background (counts per 20 min) was 112 and 122. For STRL33 29-46 (peptide), the counts minus background (counts per 20 min) was 534 and 634. Molecule CCR5 161-178 (peptide) has a counts minus background (counts per 20 min) of 118. CCR5 237-254 (peptide) showed a counts minus background (counts per 20 min) of 121. STRL33 61-78 (peptide) was tested, and the counts minus background (counts per 20 min) was 412 and 348. Work on CCR5 165-182 (peptide) yielded a counts minus background (counts per 20 min) of 98. With STRL33 33-50 (peptide) the counts minus background (counts per 20 min) was 606 and 372. For CCR5 325-342 (peptide), the counts minus background (counts per 20 min) was 100. In the case of CCR5 201-218 (peptide), the counts minus background (counts per 20 min) is reported as 180. In the case of STRL33 133-150 (peptide), the counts minus background (counts per 20 min) is reported as 702 and 568.

These molecules were tested against HIV-1LAI envelope gp120 labeled with radioactive iodine (HIV-1 LAI), P03377 (assay: 125I-gp120, peptide array).
NKIFLPTIYSIIFLTGIV (modifications not checked) [CXCR4 37-54] was tested, and the counts minus background (counts per 20 min) was 138. Molecule LPTIYSIIFLTGIVGNGL (modifications not checked) [CXCR4 41-58] has a counts minus background (counts per 20 min) of 118. Work on YSIIFLTGIVGNGLVILV (modifications not checked) [CXCR4 45-62] yielded a counts minus background (counts per 20 min) of 123. FLTGIVGNGLVILVMGYQ (modifications not checked) [CXCR4 49-66] gave a counts minus background (counts per 20 min) of 246. Molecule IVGNGLVILVMGYQKKLR (modifications not checked) [CXCR4 53-70] has a counts minus background (counts per 20 min) of 238.
